The values below come from the supplement of paper PMC10201428.

± gives the standard deviation of the averaged measurements.

Data set [1] relates to VchCAST RNA-guided transposition machinery (E. coli BL21(DE3) host, lacZ target). The experiment in a line: relative integration efficiency (T-LR orientation) vs wild-type transposon end (log2 (normalized fold change)); transposon end mutated: right end (5 bp flank + 75 bp right end); higher = more efficient transposition. In short, it runs like this:
(§1)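 Each barcoded pool, 1549 left-end or 1849 right-end transposon variants in a pUC57 mini-transposon donor, went into E. coli BL21(DE3) with a T7-driven effector plasmid (CRISPR array, tniQ-cas8-cas7-cas6, tnsA-tnsB-tnsC). Plates contained 0.1 mM IPTG and were held at 37°C for 18 h. Input plasmids and genomic integration junctions were PCR-amplified and read by Illumina sequencing, with two biological output replicates and four reference barcodes. Relative integration efficiency is the fold change of output over input barcode abundance, normalised to the reference barcodes and log-transformed.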

The test system is the same in data set [2]. The data set can be described thus: relative integration efficiency (T-RL orientation) vs wild-type transposon end (log2 (normalized fold change)); transposon end mutated: right end (5 bp flank + 75 bp right end); higher = more efficient transposition. In outline: as §1

“ACATTTGTTGATACAACCATAAAATGATAATTACACCCATAAATTCTTAATTATCACACCCATAAATTGATATTGCCTCTGATCATAGTCAGACCAACATTGCTACGACCCGTATTCGCACCGACAC”: the “relative integration efficiency (log2)” value in data set [1] is -1.33 ± 0.28; in data set [2] it was -1.43 ± 0.18.
Take “ACATTTGTTGATACAACCATAAAATGATAATTACACCCATAAATTGAATATTATCACACCCATAAATTGATATTGCCTCTGATCATAGTCAGACCAACATTGCTACGACCCGTATTCGCACCGACAC”: the entries for the “relative integration efficiency (log2)” value in data set [1] and in data set [2] were -0.409 ± 0.19 and -1.1 ± 0.27, respectively.
For the sequence “ACATTTGTTGATACAACCATAAAATGATAATTACACCCATAAATTGAATTATATCACACCCATAAATTGATATTGCCTCTGATCATAGTCAGACCAACATTGCTACGACCCGTATTCGCACCGACAC”, the “relative integration efficiency (log2)” value was -0.447 ± 0.17 in data set [1] and -1.65 ± 0.026 in data set [2].
The like results for “ACATTTGTTGATACAACCATAAAATGATAATTACACCCATAAATTGAGCATTATCACACCCATAAATTGATATTGCCTCTGATCATAGTCAGACCAACATTGCTACGACCCGTATTCGCACCGACAC” were, in that order, -0.422 ± 0.13 and -0.525 ± 0.0063.
As for “ACATTTGTTGATACAACCATAAAATGATAATTACACCCATAAATTGAGCCGGCGACACAAACGCCCGGTCGCGGTAAGAGGATCATAGTCAGACCAACATTGCTACGACCCGTATTCGCACCGACAC”, the “relative integration efficiency (log2)” value was 1.83 ± 0.037 in data set [1] and -1.02 ± 0.23 in data set [2].
For “ACATTTGTTGATACAACCATAAAATGATAATTACACCCATAAATTGAGCCGTATCACACCCATAAATTGATATTGCCTCTGATCATAGTCAGACCAACATTGCTACGACCCGTATTCGCACCGACAC”, in that order: -1.21 ± 0.12 and -1.03 ± 0.093.
In the case of “ACATTTGTTGATACAACCATAAAATGATAATTACACCCATAAATTGATAAAAATCACACCCATAAATTGATATTGCCTCTGATCATAGTCAGACCAACATTGCTACGACCCGTATTCGCACCGACAC”, the “relative integration efficiency (log2)” value in data set [1] was 0.324 ± 0.4; in data set [2], -0.355 ± 0.081.
“ACATTTGTTGATACAACCATAAAATGATAATTACACCCATAAATTGATAAAATACACACCCATAAATTGATATTGCCTCTGATCATAGTCAGACCAACATTGCTACGACCCGTATTCGCACCGACAC”: the “relative integration efficiency (log2)” value in data set [1] is -0.0186 ± 0.38; in data set [2] it was -0.37 ± 0.071.
“ACATTTGTTGATACAACCATAAAATGATAATTACACCCATAAATTGATAAGGATCACACCCATAAATTGATATTGCCTCTGATCATAGTCAGACCAACATTGCTACGACCCGTATTCGCACCGACAC”: the “relative integration efficiency (log2)” value in data set [1] was -0.0336 ± 0.22; in data set [2], -0.665 ± 0.083.
The like results for “ACATTTGTTGATACAACCATAAAATGATAATTACACCCATAAATTGATAAGGCGACACAAACGCCCGGTCGCGGTAAGAGGATCATAGTCAGACCAACATTGCTACGACCCGTATTCGCACCGACAC” were, in that order, 2.27 ± 0.23 and -0.882 ± 0.14.
The like results for “ACATTTGTTGATACAACCATAAAATGATAATTACACCCATAAATTGATAAGGCGCACACCCATAAATTGATATTGCCTCTGATCATAGTCAGACCAACATTGCTACGACCCGTATTCGCACCGACAC” were, in that order, -0.0146 ± 0.0051 and -0.436 ± 0.083.
Take “ACATTTGTTGATACAACCATAAAATGATAATTACACCCATAAATTGATAATAATGACACCGAATTTAACTATAACGCTCTGATCATAGTCAGACCAACATTGCTACGACCCGTATTCGCACCGACAC”: the “relative integration efficiency (log2)” value in data set [1] was 5.35 ± 0.24; in data set [2], 1.54 ± 0.64.
With “ACATTTGTTGATACAACCATAAAATGATAATTACACCCATAAATTGATAATATAGACACCCATAAATTGATATTGCCTCTGATCATAGTCAGACCAACATTGCTACGACCCGTATTCGCACCGACAC”, the figures for the “relative integration efficiency (log2)” value in data set [1] and in data set [2] were -0.0877 ± 0.52 and -0.321 ± 0.15, respectively.
As for “ACATTTGTTGATACAACCATAAAATGATAATTACACCCATAAATTGATAATATTCACACCCATAAATTGATATTGCCTCTGATCATAGTCAGACCAACATTGCTACGACCCGTATTCGCACCGACAC”, the “relative integration efficiency (log2)” value in data set [1] is -0.107 ± 0.095; in data set [2] it was -0.274 ± 0.23.
For “ACATTTGTTGATACAACCATAAAATGATAATTACACCCATAAATTGATAATCACACCCATAAATTGATATTGCCTCTGATCATAGTCAGACCAACATTGCTACGACCCGTATTCGCACCGACACTGA”, the “relative integration efficiency (log2)” value was 1.82 ± 0.057 in data set [1] and -1.32 ± 0.31 in data set [2].
As to “ACATTTGTTGATACAACCATAAAATGATAATTACACCCATAAATTGATAATGATGACACCGAATTTAACTATAACGCTCTGATCATAGTCAGACCAACATTGCTACGACCCGTATTCGCACCGACAC”, the “relative integration efficiency (log2)” value in data set [1] was 2.06 ± 0.097; in data set [2], -1.34 ± 0.27.
The like results for “ACATTTGTTGATACAACCATAAAATGATAATTACACCCATAAATTGATAATGCGAACACCCATAAATTGATATTGCCTCTGATCATAGTCAGACCAACATTGCTACGACCCGTATTCGCACCGACAC” were, in that order, 0.16 ± 0.083 and -0.292 ± 0.045.
For “ACATTTGTTGATACAACCATAAAATGATAATTACACCCATAAATTGATAATGCGACACAAACGCCCGGTCGCGGTAAGAGGATCATAGTCAGACCAACATTGCTACGACCCGTATTCGCACCGACAC”, in that order: 2.69 ± 0.1 and -0.485 ± 0.11.
Consider “ACATTTGTTGATACAACCATAAAATGATAATTACACCCATAAATTGATAATGCTCACACCCATAAATTGATATTGCCTCTGATCATAGTCAGACCAACATTGCTACGACCCGTATTCGCACCGACAC”, for which the results for the “relative integration efficiency (log2)” value in data set [1] and in data set [2] were 0.654 ± 0.025 and -0.488 ± 0.1, respectively.
The like results for “ACATTTGTTGATACAACCATAAAATGATAATTACACCCATAAATTGATAATTAAAACACCCATAAATTGATATTGCCTCTGATCATAGTCAGACCAACATTGCTACGACCCGTATTCGCACCGACAC” were, in that order, 0.089 ± 0.23 and -0.399 ± 0.27.
Consider “ACATTTGTTGATACAACCATAAAATGATAATTACACCCATAAATTGATAATTAAGACACCCATAAATTGATATTGCCTCTGATCATAGTCAGACCAACATTGCTACGACCCGTATTCGCACCGACAC”, for which the “relative integration efficiency (log2)” value in data set [1] is -0.137 ± 0.32; in data set [2], -0.306 ± 0.23.
Consider “ACATTTGTTGATACAACCATAAAATGATAATTACACCCATAAATTGATAATTAAGTGACCCATAAATTGATATTGCCTCTGATCATAGTCAGACCAACATTGCTACGACCCGTATTCGCACCGACAC”, for which the results for the “relative integration efficiency (log2)” value in data set [1] and in data set [2] were 0.91 ± 0.58 and -0.484 ± 0.16, respectively.
Consider “ACATTTGTTGATACAACCATAAAATGATAATTACACCCATAAATTGATAATTACACCCATAAATTGATATTGCCTCTGATCATAGTCAGACCAACATTGCTACGACCCGTATTCGCACCGACACTGA”, for which the “relative integration efficiency (log2)” value in data set [1] was 1.39 ± 0.33; in data set [2], -0.821 ± 0.28.
Regarding “ACATTTGTTGATACAACCATAAAATGATAATTACACCCATAAATTGATAATTACCACTCCCAATTTAACTATAACGCTCTGATCATAGTCAGACCAACATTGCTACGACCCGTATTCGCACCGACAC”, the “relative integration efficiency (log2)” value was 2.61 ± 0.18 in data set [1] and -0.782 ± 0.24 in data set [2].
On to “ACATTTGTTGATACAACCATAAAATGATAATTACACCCATAAATTGATAATTAGAACACCCATAAATTGATATTGCCTCTGATCATAGTCAGACCAACATTGCTACGACCCGTATTCGCACCGACAC”, for which the entries for the “relative integration efficiency (log2)” value in data set [1] and in data set [2] were -0.0187 ± 0.33 and -0.195 ± 0.2, respectively.
